We go through ten molecules from article PMC8196545 (Cell reports, 2021).

The target of assay [1] is T1, HIV-1 NL4-3 Env on infected cells (HIV-1 group M subtype B, NL4-3 (pNL4-3 …, strain)). The assay can be described thus: flow cytometry on cells.
The target of assay [2] is gp120 JR-CSF (recombinant) (HIV-1, UniProt P20871). The assay can be described thus: ELISA.
Assay [3] addresses T1, HIV-1 NL4-3 Env on infected cells.

Read-outs that look alike come from different tables or passages of the source.

B1: HC antibody RI5281 (IgG1) (antibody, V domains shown)
VH: QVRLAEFGGGVVRPGESLTLSCATSGFSFTSYGMHWVRQTPGKGLEWVAVIWNDGSRRYYSDSVQGRFTIAKDFANKTLSLQMRDLRVGDTAVYFCARAYGPQSEIDSWGQGILVTVSS
VL: SYGLTQPSSVSVSPGQTAIITCFGNILPRKSAYWYRQTAGRAPTLVIFGDNNRPSGIPARFSGFTAGTVATLVIAATQVDDEGDYYCYSADNSGNHRGVFGGGTKLTVL
Take B1: the binding result in assay [1] and in assay [2] was “binds” throughout.

B2: HC antibody RI808 (IgG1) (antibody, V domains shown)
VH: QIQLRESGPGLVKPSETLTLTCSVSGGSIFPYFYSWIRQPAGKGLEWIGRLFSNSGSVRSNPSMHTRVGFSMDRSRNQVSLTLTSVTAEDTAVYYCVRDIMREYDDINGAGGYYRGVDVWGRGTMVTVSS
VL: NFMLTQPPSVSESPGKTVTISCTRNSGSIASNSVYWYRQRPGSPPTTLIHDNNRRPTGVPDRFSASIDTSSNSASLTISSLKTEDEADYYCQSYDNGNHVIFGGGTNLLVL
Consider B2, for which, in assay [2], the binding result was “binds”.

B3: c1821 (antibody, V domains shown)
VH: QVQLIQSGAEVKKPGASVKVSCKVSGYTFPEVSMHWVREAPGRGLEWVGGYDPQSAATVYAQRFQGRVTMTEDTSVDTAYMELTSLTSEDTALYFCARSIMIRYGGVIRSFAFDVWGQGTMVIVSS
VL: SSELTQDPAVSVALGQTVTITCQGDSLRQYYATWYQRKPGQAPVLVLSGKNKRFSGIPDRFSGSTSGNSASLTIIGTQAEDEADYYCSSRGSDAYPHYVFGTGTKVTVL
Turning to B3, the binding result in assay [3] is listed as “binds”.

B4: c2718 (antibody, V domains shown)
VH: HVQLQQWGAGLLKPSETLSLTCAVYGESFSVYDWAWIRQSPGKGLEWIGEINHDGGTNYNPSLKSRVTISIDIHLRRFSLSLISVTAADTAIYYCARHIGQLEAFDYWGQGALVTVSS
VL: QSALTQPASVSGSPGQSITISCTGITSDVGDHSYVSWYQQPPGKAPQLIIYDVVNWPPGVSHRFSGSKSGNTASLTITGLRAEDEADYYCASYRRGSSVVFGGGTKVTVL
For B4, in assay [3], the binding result is “binds”.

B5: c8567 (antibody, V domains shown)
VH: QQQRVETVKHAVDPGSFLIISCPTSGFTFETYAMHWVRQAPGKGLEWVAATSALGEKKYYSNAVKGRFLITRNNSKRTLYLEMSGLKAEDTAVYYCARSQGYCSDFSCYGYYYYMDVWVKGPTVIVSS
VL: QSVLTQPPSVSAAPGEKVTISCSGNTTNIGNNFVAWYQHLPQNAPKLLIYEDHKRPFGIPDRFSGSKSGTSATLGISGLQTGDEADYYCQTWDAKLLIWIFGGGTKVTVL
B5: in assay [3], the binding result was “binds”.

B6: c8639 (antibody, V domains shown)
VH: LLQLHESGPGLVKPSEALSLTCTVSGASATNGLYWAWIRQPPGKGLEWVASLKKWRGYYNPSLGSRVTISHAPDNQISLRLESVTAADAAVYFCVGFFSSSAFDYWGRGTLVTVSS
VL: AYVLTQPPSVSVAPGKTAKISCEGNNIGQKAVHWYQQKSGQAPVLFISDGTTRTSGIPARFSGSRSGNTATLTISWVEGGDEADYYCQVMSGDTALFGGGTKLTVL
For the molecule B6, in assay [3], the binding result is “binds”.

B7: c7809 (antibody, V domains shown)
VH: QEQRIESVRAAVEPGASLIISCPTSGFDFDRYTMHWVRQAPGKGLEWVAVTSSQGEKKYYSEAVKGRFLITRNNFKRTLYLEMSSLKPEDAGVYYCARSQGYCGTYACYGYYYYMDVWVKGPTVIVSS
VL: QSVLTQPPSVSAAPGEKVAISCSGNTTNIEKNYVAWYQHVPETAPKLLIFENHKRPFGIPDRFSGSKSATSATLGISDLQTADEADYYCQTWDTKLHIWVFGGGTKLTVL
As to B7, the binding result in assay [3] is “binds”.

B8: HC antibody RI10953 (IgG1) (antibody, V domains shown)
VH: EMRLEESGGALVKPGGSLRLSCVASGFKLSEWSLMWVRQAPGKGLQWVSSISLNQDYISYAGSVRGRFDVFRDRTQTSLLLNMNKLKTEDTGVYFCARVHAWRYFDWVNRRSPVEKVLSIDLWGRGTLVIVSS
VL: SGATQPPSVSVSKGETARITCSGVELSSQYVSWYRQRPGQSPVLVMFHNNSRASRIPERFSASDSGDTATLTIAGAQDVDEAEYYCQTWDSKNYVTFGGGTKLTVL
In the case of B8, the binding result in assay [2] was “binds”.

B9: c13173 (antibody, V domains shown)
VH: EVYLMESGGGLVQPGGSLRLSCEVSGLNRTDYWMHWIRQPPGKGLEWVSRIYSHGGGTTYADSVRGRFSLSRDSAKSTLFLEMNSLRVEDTAIYYCLFSEGDFWGPGTLVTVSS
VL: QSALTQPASLSGSPGQSITISCTGNSSDIGKSDYVSWYRQDPGKAPKLLIYDVSSRLSGISDRFSGSKSDNTASLTISGLQAEDEADYYCSSYTNWDTKVFGTGTRVTVL
B9: the binding result in assay [3] was “binds”.

B10: c10814 (antibody, V domains shown)
V domain 1: EVRLDQSGTEMRKPGTRVRLSCKVSGHTTSDFFVHWVQQAPQRGPQWMGLINVEDENVIYADIFQGRISIVADTSKKTVFLDLTDLTFEETALYFCATHTLQKDTGDYVAAFDSWGQGTLLYVSS
V domain 2: QSVLTQPPSVSAVPGQKVIISCSGRTSNIGTNFVSWYQQFPGAAPKLLIYDNFNRPSGISDRFSASKSDTSATLAITALQAGDEAEYYCGAWDSGLNPAVFVFGSGTRVFVL
For the molecule B10, the binding result in assay [3] was “binds”.
